The chains are these.
B1: g5-D78-7_CLK19 (antibody, V domains shown)
VH: QVQLVQSGAEVKKPGASVKVSCKASGYTFTGYYIHWVRQAPGQGLEWMGWINPSYGAVNYARKFQGRVTMTRDTSISTAYMELQRLRSDDTAIYHCTIALAGYRWGFDYWGQGALVTVSS
VL: DIQMTQSPSSLSAFVGDRVTITCQARLDISYSLNWYQQKPGKAPNLLIYDASNLETGVPSRFSGSGSGTNFTFAISALQPEDIATYYCQQYETFGPGTKVHIK
B2: GT8-D36-18_CLK21 (antibody, V domains shown)
VH: QVQLVQSGAEVKKPGASVKVSCKTSGYTFTDYYMHWVRQAPGQGLEWMGWINPNSGGTNYAQRFQGRVTMTRDTSISTAYMELSRLRSDDTAVYYCASALRDSQPWWFDPWGQGTLVTVSS
VL: DIQMTQSPSTLSASVGDRVTITCRASQSISSWLAWYQQKPGKAPKLLIYKASSLESGVPSRFSGSGSGTEFTLTISSLQPDDFATYYCQQYDTFGGGTKVEIK
B3: GT8-D36-22_CLK21 (antibody, V domains shown)
VH: not shown
VL: B2 VL with K99R
B4: GT8-D36-6_CLK19 (antibody, V domains shown)
VH: QVQLVQSGAEVKKPGASVKVSCKASEYTFTGYYMHWVRQAPGQGLEWMGWINPNSGGTNYVQKFQDRVTMTRDTSINTAYMELSRLRSDDTAVYYCTPVLAYYRWRFDYWGQGTLVTVSS
VL: not shown
B5: g5-D78-5_CLK19 (antibody, V domains shown)
VH: QVQLVQSGAEVKKPGASVKVSCKASGYTFTDYFLHWVRQAPGQGLEWMGWINPNRGGVNYAQKFQGRVTMTRDTSINTAYMELSRLRSDDTAVYYCTPILTNFRWRFDFWGQGTLVTVSS
VL: DIQMTQSPSSLSASVGDRVTITCQASQDIQNYLNWYQQKPGTAPKLLIYDTSNLETGVPSRFSGSGSGTDFIFTISSLQPEDIATYYCQQYEAFGPGTKVDIK
B6: g5-D78-6_CLK19 (antibody, V domains shown)
VH: B5 VH with A24T, D31G, R55S, V58I, N77H, I99V, R106P, D108A
VL: B5 VL with Q30K, S65G, I72T, A93T
B7: GT8-D36-8_CLK19 (antibody, V domains shown)
VH: QVQLVQSGAEVKMPGASVKVSCKASGYTFTGYYMHWVRQAPGQGLEWMGWINPNSGGTNYAQKFQGRVTMTRDTSISTAYMALNSLRSDDAAVYYCAIVLADYRWRFNYWGQGTLVTVSS
VL: not shown
B8: g5-D78-23_CLK09 (antibody, V domains shown)
VH: QVQLVQSGAEVKKPGASVKVSCKASGYTFTDYYMHWVRQAPGQGLEWVGWINPNSGGMNFAQRFQDRVTMTRDTSISTAYMELSRLQSDDSAVYFCARVGGLWIGEKWTFDIWGQGTMVTVSS
VL: DIQMTQSPSSLSASVGDRVTITCQASQDISTYLNWYQQRPGKAPKLLIYGASNLATGVPSRFSGSGSGTDFTFTISSLQPEDIATYYCQLYEFFGGGTKVEIK
B9: GT8-D36-3_CLK09 (antibody, V domains shown)
VH: QVQLVQSGAEVKKPGASVKVSCKASGYTFTGYYMHWVRQAPGQGLEWMGWINPNSGGTNFAQKFQGRVTMTRDTSINTAYMELSRLRSDDSAVFYCARVESKIFDIWGQGTMVTVSS
VL: B8 VL with A25T, T31N, R39K, G50D, A55E, L90Q
B10: GT8-D36-5_CLK09 (antibody, V domains shown)
VH: not shown
VL: B8 VL with A25T, T31N, R39K, G50D, A55E, L90Q
B11: GT8-D36-15_CLK09 (antibody, V domains shown)
VH: QVQLVQSGAEVKKPGASVKVSCKASGYTFTGHYIHWVRQAPGQGLKWMGWINPNSGGTNNAQKFQGRVTMTRDTSISTAYLELSRLRSDDTAVYYCARVEGLWTFDIWGQGTMVTVSS
VL: B8 VL with T31N, R39T, G50D, A55E, P80S, L90Q, Y91F
B12: GT8-D36-14_CLK09 (antibody, V domains shown)
VH: not shown
VL: B8 VL with T31N, R39K, G50D, A55E, L90Q
B13: GT8-D36-13_CLK09 (antibody, V domains shown)
VH: B11 VH with H32Y, N60Y
VL: B8 VL with T31N, R39K, L46V, G50D, A55E, P80S, I83V, L90Q, K99T
B14: g5-D78-8_CLK09 (antibody, V domains shown)
VH: QVQLVQSGAEVKKPGVSVKVSCKASGYTFNGYYMHWVRQAPGQGLEWMGWINPNNGGINIARRFEDRVTMTRDTSITTAHMELSRLRSDDSAVYYCARVGGLWFGEKWTFDIWGQGTMVTVSS
VL: B8 VL with A25T, Y32F, S52C, L90Q
B15: GT8-D36-2_CLK09 (antibody, V domains shown)
VH: QVQLVQSGAEVKKPGASVKVSCKASGYTFTGYYMNWVRQAPGQGLEWMGWINPNSGGTNYAQQFQGRVTMTRDTSISTAYMELSRLKSDDTAVYYCARVDGKKKTFDIWGQGTMVTVSS
VL: B8 VL with T31N, R39K, G50D, A51V, A55E, D70A, L90Q
B16: GT8-D36-16_CLK09 (antibody, V domains shown)
VH: B11 VH with H32Y, N60Y
VL: B8 VL with T31N, R39K, L46V, G50D, A55E, P80S, L90Q
B17: GT8-D36-17_CLK09 (antibody, V domains shown)
VH: B11 VH with T30S, H32Y, N60Y
VL: B8 VL with V15I, T31N, R39K, G50D, A55E, P80S, L90Q
B18: GT8-D36-20_CLK09 (antibody, V domains shown)
VH: B11 VH with H32Y, N60Y
VL: B5 VL with Q30S, T42K, T51A, P80S, I83M, A93F, P96G, D101E
B19: GT8-D36-21_CLK09 (antibody, V domains shown)
VH: B11 VH with H32Y, N60Y
VL: B8 VL with T31N, R39K, G50D, A55E, S76G, P80S, L90Q
B20: GT8-D36-4_CLK09 (antibody, V domains shown)
VH: not shown
VL: B8 VL with M4L, T31S, Y32S, R39K, P40T, L46V, G50D, A55E, L90Q
B21: GT8-D36-19_CLK09 (antibody, V domains shown)
VH: B11 VH with K12R, H32Y, K46E, N60Y, A61E
VL: B8 VL with T31N, R39K, G50D, A55E, P80S, L90Q
B22: GT8-D36-10_CLK19 (antibody, V domains shown)
VH: QVQLVQSGAEVKKPGASVKVSCKASGYSFTGYYIHWVRQAPGQGLEWMGWTNPNSGGTNYAQKLEGRVTMTRDTSISTAYMELSRLRFDDTAVYYCALAGYRWRFDYWGQGTLVTVSS
VL: not shown
B23: g5-D78-3_CLK19 (antibody, V domains shown)
VH: QVQLVQSGAEVKKPGASVKVSCKASGYIFTDYNMHWVRQAPGQGLEWMGWINPSFGGRNIVQKFQGRVTMTRDTSISTAYMELSGLRSDDTAVYFCTPVLAPFRWPFAYWGQGTLVTVSS
VL: DIQMTQSPSSLSASVGDRVTITCQASQDINYLNWYQQKPGKAPKLLIYDASNLETGVPSRFSGSGSGTDFTFTISSLQPEDIATYYCQQYAAFGPGTKVDNK
B24: g5-D78-9_CLK19 (antibody, V domains shown)
VH: B23 VH with S54R
VL: B23 VL with N101I
B25: g5-D78-4_CLK19 (antibody, V domains shown)
VH: B23 VH with S54R, I76S
VL: B23 VL with N101I
B26: CLK21 germline (GL) mAb (antibody, V domains shown)
VH: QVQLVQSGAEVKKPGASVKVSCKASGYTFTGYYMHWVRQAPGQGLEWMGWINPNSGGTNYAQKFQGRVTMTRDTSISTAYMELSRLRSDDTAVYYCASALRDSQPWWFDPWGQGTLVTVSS
VL: B2 VL with D92G

Numbering of substitutions follows the chain as printed.

The target of one test is eOD-GT8 (monomeric ligand) (Human immunodeficiency virus 1, …).
Test: not given
Details: not given
Usually Kd stands for the equilibrium constant for the complex coming apart. High values mean weaker binding, low ones tighter binding. For B1, binding was put at a Kd of 23 nM. Turning to B2, the Kd was 2.63 nM. On to B3, for which binding was put at a Kd of 2.94 nM. With B4, binding was put at a Kd of 2.03 nM. B5 registered an equilibrium dissociation constant (Kd) of 2 nM. This Kd and that of the molecule before are within 1.5-fold of each other. In turn, B6 yielded an equilibrium dissociation constant (Kd) of 0.26 nM. The same measure, in the same setting: for B7 the value was 0.411 nM.

Take B8: binding was characterised by a dissociation constant (Kd) of 0.078 nM. Consider B9, for which the Kd came out at 0.13 nM. Still for that read-out and setting: for B10 the value was 1.28 nM. B11 had a dissociation constant Kd of 260 nM. Take B12: the equilibrium dissociation constant (Kd) was 26.9 nM. In turn, B13 showed an equilibrium dissociation constant (Kd) of 534 nM. The molecule B14 yielded a Kd of 0.14 nM. This Kd lies about 3800-fold lower than the previous one. The molecule B15 registered a Kd of 0.997 nM. This Kd lies about 7.1-fold higher than the previous one. B16 displayed a Kd of 37.9 nM.

Take B17: the dissociation constant Kd turned out to be 4.09 nM.

Molecule B18 came in with an equilibrium dissociation constant (Kd) of 8.37 nM.

The molecule B19 registered an equilibrium dissociation constant (Kd) of 6.07 nM. On to B20, for which binding was characterised by a dissociation constant (Kd) of 0.0423 nM. In the case of B21, the Kd turned out to be 0.958 nM. Molecule B22 displayed a Kd of 4.3 nM. Still for that read-out and setting: with B23 the figure was 0.87 nM; with B24, 2.1 nM.

In turn, B25 gave a Kd of 2.1 nM. That is a single-digit nanomolar value.

For a further test, the target named is T1, eOD-GT8 (monomeric ligand) (Human immunodeficiency virus 1, …).
T1 construct: also called eOD-GT8 ligand; GT8-prime ligand
The test can be described thus: SPR; Carterra LSA; kinetics and affinity of antibody–antigen interactions, methods as in Cottrell et al. (ref. 56); who was immobilised is not told (the antigens are called ligands); values for groups are geometric means over the mAbs. As to conditions: both partners purified.
Regarding B26, binding was put at a Kd of 440 nM.

Values taken from PMC11488661 (Science immunology, 2024).
